In publication PMC9723941:

Biological target: GFPuv (heat-aggregated)
Assay: BLI; aggregated GFPuv as the sensor-bound substrate; Ssa1 and Ydj1 in solution; As(III) at the aggregation step (Fig. S3A)

Chain of Ydj1 (P25491 whole entry): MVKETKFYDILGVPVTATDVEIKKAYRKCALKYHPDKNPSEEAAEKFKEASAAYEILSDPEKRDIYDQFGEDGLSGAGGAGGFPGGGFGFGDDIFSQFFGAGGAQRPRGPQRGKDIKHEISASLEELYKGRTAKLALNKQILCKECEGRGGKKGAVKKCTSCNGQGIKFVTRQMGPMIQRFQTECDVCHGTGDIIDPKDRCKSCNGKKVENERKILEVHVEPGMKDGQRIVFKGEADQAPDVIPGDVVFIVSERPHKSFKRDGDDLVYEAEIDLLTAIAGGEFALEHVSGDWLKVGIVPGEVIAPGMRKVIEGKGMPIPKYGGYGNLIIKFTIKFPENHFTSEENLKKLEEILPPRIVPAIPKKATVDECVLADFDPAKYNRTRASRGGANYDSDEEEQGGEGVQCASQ
Chain of Ssa1 (P10591 whole entry): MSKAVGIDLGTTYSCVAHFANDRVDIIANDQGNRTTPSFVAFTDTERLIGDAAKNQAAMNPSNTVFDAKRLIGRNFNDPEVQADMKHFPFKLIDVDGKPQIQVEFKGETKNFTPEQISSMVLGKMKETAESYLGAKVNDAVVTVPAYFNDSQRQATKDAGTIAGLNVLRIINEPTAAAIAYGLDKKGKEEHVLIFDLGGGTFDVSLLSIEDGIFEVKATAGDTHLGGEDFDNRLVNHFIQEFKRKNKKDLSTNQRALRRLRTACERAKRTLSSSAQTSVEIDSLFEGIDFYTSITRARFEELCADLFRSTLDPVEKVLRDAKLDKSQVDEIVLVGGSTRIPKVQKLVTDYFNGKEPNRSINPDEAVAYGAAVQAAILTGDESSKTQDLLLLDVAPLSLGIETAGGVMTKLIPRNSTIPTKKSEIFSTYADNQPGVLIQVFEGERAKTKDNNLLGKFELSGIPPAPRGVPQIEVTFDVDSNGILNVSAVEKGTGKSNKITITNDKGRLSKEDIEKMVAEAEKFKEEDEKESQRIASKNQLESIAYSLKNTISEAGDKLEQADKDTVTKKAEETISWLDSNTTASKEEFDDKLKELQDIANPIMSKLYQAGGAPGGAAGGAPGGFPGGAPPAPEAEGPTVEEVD

| reduction of binding to aggregates generated in the presence of 1 mM As(III), against aggregates generated without As(III) [%] | Substance |
| --- | --- |
| 30 | Ssa1 (from UniProt P10591 1-642) (natural protein) |
| 30 | Ydj1 (from UniProt P25491 1-409) (natural protein) |
